Experimental data from patent US10487307B2, “Culture method for pluripotent stem cells” (FUJIFILM CORPORATION, priority 2013, dated 2019).

B1: RCP-5: recombinant polypeptide for culture, SEQ ID NO: 19; vitronectin positions 1-55, 302-341, 342-373 (protein)
chain: MDQESCKGRCTEGFNVDKKCQCDELCSYYQSCCTDYTAECKPQVTRGDVFTMPEDEFWGRTSAGTRQPQFISRDWHGVPGQVDAAMAGRIYISGMAPRPSLAKKQRFRHRNRKGYRSQRGHSRGRNQN
modifications: Vitronectin-derived Recombinant Protein (RCP-5)
B2: RCP-11: recombinant polypeptide for culture, SEQ ID NO: 25; vitronectin positions 1-55, 269-277, 295-341, 342-373, C274S (protein)
chain: MDQESCKGRCTEGFNVDKKCQCDELCSYYQSCCTDYTAECKPQVTRGDVFTMPEDESQEESEGSEDIFELLFWGRTSAGTRQPQFISRDWHGVPGQVDAAMAGRIYISGMAPRPSLAKKQRFRHRNRKGYRSQRGHSRGRNQN
modifications: Vitronectin-derived Recombinant Protein (RCP-11)
notes: vitronectin positions 1-55, 269-277, 295-341, 342-373, C274S

Legend:
[1] = test system: human iPS cells ("Tic"); experiment: Cell growth property evaluation 1 (different media); assay type: cell-based; conditions: for cell growth properties with Essential 8 or NutriStem not containing 2-mercaptoethanol versus media containing it: Table 11; for Cell growth rate: polypeptide 100 μg/ml, 72 hours, RCP-11 with Essential 8 = 100%, n=3
Method: Furthermore, for evaluation, human iPS cells (“Tic”) that were retention-cultured as described in <Cell adhesiveness evaluation 1> of reference example were treated with TrypLE Select (Invitrogen) for 5 minutes at 37° C. and separated into a single cell. After being subjected to centrifugation for 2 minutes at 300 rpm, the cells were collected, suspended in each medium, and used for the evaluation in each example. Herein, Y-27362 ((R)-(+)-trans-N-(4-pyridyl)-4-(1-aminoethyl)-cyclohexane carboxamide.2HCl.H2O, an Rho binding kinase inhibitor, Wako Pure Chemical Industries, Ltd.) was added to all of the media at a final concentration of 10 μM.
Each of RCP-11, RCP-5, and recombinant laminin (Human Recombinant Laminin-511: BIOLAMINA AB) as control was added to and suspended in a predetermined buffer (a dialysis buffer used in <GRAVY value and aggregation characteristics> of reference examples for RCP-11 and RCP-5, and PBS for the recombinant laminin) at the final concentration shown in Table 11, thereby preparing polypeptide solutions. The polypeptide solutions were added to the respective wells of a plasma-treated 96-well plate made of polystyrene (BD Falcon) having a plasma-treated cell culture surface and held as they were so as to be adsorbed onto the plate for 2 hours at 37° C. In this way, a peptide-treated 96-well plate having a polypeptide-coated surface was obtained. The iPS cells suspended in the respective media shown in Table 11 were seeded into the respective wells of the obtained peptide-treated 96-well plate at a cell density of 10,000 cells/well. After the cells were cultured for 72 hours, nonadhesive cells were washed off with PBS, and only adhesive cells were immobilized using 4% by mass of paraformaldehyde (Wako Pure Chemical Industries, Ltd.). By using an Attophos (registered trademark) AP Fluorescent Substrate System (Promega Corporation), the ALP activity was calculated, and from the calibration curve, the number of undifferentiated iPS cells having the ALP activity was calculated. In Table 11, the cell adhesion rate is expressed as a ratio calculated by regarding the number of pluripotent stem cells after the culture for 72 hours in a combination of RCP-11 and Essential 8 as being 100%. n=3.
In Table 11, “% by mass” in the concentration of 2-meracptoethanol is a proportion (w/v %) of mass (g) of 2-meracptoethanol per 100 mL of the total volume of the medium at the time of culture.

[2] = Evaluation 1 about amount of residual polypeptide adsorbed (ELISA, media); assay type: physicochemical; conditions: for Residual rate of polypeptide (%): four days after the starting of culture, amount adsorbed immediately after start = 100, coated at 100 μg/ml; for residual rate of adsorbed polypeptide, medium not containing versus containing 2-mercaptoethanol: FIGS. 5 and 6 and Table 13
Method: RCP-11 and RCP-5 were prepared by using a predetermined buffer (the dialysis buffer used in <GRAVY value and aggregation characteristics> of reference examples) such that their concentration became 100 μg/ml. The polypeptides were added to the respective wells of a plasma-treated 96-well plate made of polystyrene having a plasma-treated cell culture surface and held as they were for 2 hours at 37° C. so as to be adsorbed onto the plate, thereby obtaining a polypeptide-coated surface. After the wells were washed with PBS, the respective media were added thereto, followed by incubation at 37° C. for a predetermined time. The wells were washed with PBS, and then 20% by mass of an immunoblocking solution (DS Pharma Biomedical Co., Ltd.) was added thereto, followed by incubation for 30 minutes at 37° C., thereby performing a blocking treatment. After the wells were washed with PBS-T (PBS containing 0.05% by mass of Tween-20), 5% by mass of an immunoblocking solution (DS Pharma Biomedical Co., Ltd.) containing an anti-human vitronectin antibody (Thermo Fisher Scientific Inc.) was added thereto, followed by incubation for 2 hours at room temperature. After the wells were washed with PBS-T, a 5% by mass of immunoblocking solution (DS Pharma Biomedical Co., Ltd.) containing an HRP-labeled anti-IgG antibody (Thermo Fisher Scientific Inc.) was added thereto, followed by incubation for 1 hour at room temperature. After the wells were washed with PBS-T, a TMB Substrate (Wako Pure Chemical Industries, Ltd.) was added thereto for developing color, and then 1 N hydrochloric acid was added thereto to stop the color reaction. By using a plate reader, the absorbance was measured, and the amount of the residual RCP-11 and RCP-5 was determined (absorption wavelength: 450 nm, control wavelength: 650 nm).
In Table 13, the residual rate of RCP-11 and RCP-5 is expressed as a ratio (%) calculated by regarding the amount of the polypeptides adsorbed immediately after the starting of culture as being 100.

[3] = test system: iPS cells; experiment: Example 6: evaluation of undifferentiated state maintainability (10 passages); assay type: cell-based, human; conditions: for shape of iPS cells after 10 passages: Essential 8 and NutriStem not containing 2-mercaptoethanol, FIGS. 8A to 8D
Method: iPS cells were seeded onto cell culture surfaces coated with RCP-11 and RCP-5 and cultured in Essential 8. Every five to seven days after seeding, cell culture surfaces coated with RCP-11 and RCP-5 were newly prepared. The iPS cells were treated with TryPLE Select, separated into a single cell, and then collected. Thereafter, the iPS cells were subcultured by being seeded onto the newly prepared cell culture surfaces coated with RCP-11 and RCP-5. Under the conditions described above, the cells were cultured for 10 passages.
The iPS cells cultured for 10 passages on the RCP-11-coated surface were immobilized using 4 v/v % paraformaldehyde, and the membrane permeability was enhanced by using 1% by mass of Triton-X/PBS. After the cells were subjected to a blocking treatment using an Image IT Signal Enhancer (Invitrogen), an anti-NANOG antibody (AF 1997, R&D Systems, Inc.), an anti-OCT 3/4 antibody, an anti-SSEA-3 antibody, an anti-S SEA-4 antibody, a anti-Tra-1-60 antibody, and an anti-Tra-1-81 antibody (Stemcell Technologies Inc), an Alexa Fluor 555 binding rabbit anti-goat IgG antibody (Invitrogen), an FITC binding goat anti-mouse IgM antibody (Stemcell Technologies Inc), and DAPI (Dojindo Molecular Technologies, Inc.) were added thereto for labeling, and the cells were imaged using a fluorescence microscope.
In FIGS. 8A to 8D, the images on the left side are full images of the colony, and the images on the right side are magnified images. The scale bar in FIGS. 8A to 8D indicates 500 μm.
In FIGS. 9A to 9F, each of the images of stained cells is an image of stained iPS cells cultured on the RCP-11-coated surface by using Essential 8. The images on the left side are images of the cells stained with DAPI, and the images on the right side are images of the cells stained with NANOG (FIG. 9A), OCT 3/4 (FIG. 9B), SSEA-3 (FIG. 9C), SSEA-4 (FIG. 9D), Tra-1-60 (FIG. 9E), and Tra-1-81 (FIG. 9F). The scale bar in FIGS. 9A to 9F indicates […].

[4] = medium Essential8, 2-mercaptoethanol 0, 10,000 cells/well
[5] = medium NutriStem, 2-mercaptoethanol 0
[6] = medium ReproFF2, 2-mercaptoethanol 102.4 μM (0.0008% by mass)
[7] = medium StemPro hESC SFM, 2-mercaptoethanol 100 μM (0.00078% by mass)
[8] = medium TeSR2, 2-mercaptoethanol 48.6 μM (0.00038% by mass)

| Molecule | cell growth properties with Essential 8 or NutriStem not containing 2-mercaptoethanol versus media containing it [1] | Cell growth rate [1, 4] [%] | Cell growth rate [1, 5] [%] | Cell growth rate [1, 6] [%] | Cell growth rate [1, 7] [%] | Cell growth rate [1, 8] [%] | Residual rate of polypeptide (%) ([2]; Essential8) | residual rate of adsorbed polypeptide, medium not containing versus containing 2-mercaptoethanol [2] | Residual rate of polypeptide (%) ([2]; NutriStem) | Residual rate of polypeptide (%) ([2]; ReproFF2) | Residual rate of polypeptide (%) ([2]; Stempro hESC SFM) | Residual rate of polypeptide (%) ([2]; TeSR2) | shape of iPS cells after 10 passages [3] | expression of markers specific to undifferentiated cells ([3]; Essential 8, 10 passages, immunostaining, FIGS. 9A to 9F) |
| --- | --- | --- | --- | --- | --- | --- | --- | --- | --- | --- | --- | --- | --- | --- |
| B1 | better | 84.4 | 123 | 70.3 | 20.1 | 54.4 | 65.6 | decreases further with the passage of time | 62.5 | 42.1 | 35.3 | 44.0 | shape specific to undifferentiated cells | – |
| B2 | better | 100 | 129.1 | 84.7 | 13.6 | 71.8 | 71.8 | decreases further with the passage of time | 63.5 | 42.0 | 29.4 | 49.9 | shape specific to undifferentiated cells | expressed NANOG, OCT 3/4, SSEA-3, SSEA-4, Tra-1-60, and Tra-1-81 |
